According to article doi:10.1101/2022.08.17.504309:

Target: C-type lectin domain of CD62P (P-selectin), residues 1-117, wild type (UniProt P16109)
Assay: ELISA

UniProt P16109, sequence (P16109 42-158): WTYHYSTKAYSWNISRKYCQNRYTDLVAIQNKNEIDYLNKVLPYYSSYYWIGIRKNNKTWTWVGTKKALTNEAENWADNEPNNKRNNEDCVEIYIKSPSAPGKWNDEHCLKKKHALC

Row | fold binding against the combined lectin and EGF-like domains [fold] | Substance
1 | 2 | soluble recombinant integrin αIIbβ3 (from UniProt P08514;P05106) (complex)
2 | 2 | soluble integrin αvβ3 (from UniProt P06756;P05106) (complex)
